Where no end group is shown, it is not given here.

The target in assay [1] is chicken pp60^v-src (chicken).

Sequence of GST-c-abl (P00519 whole entry): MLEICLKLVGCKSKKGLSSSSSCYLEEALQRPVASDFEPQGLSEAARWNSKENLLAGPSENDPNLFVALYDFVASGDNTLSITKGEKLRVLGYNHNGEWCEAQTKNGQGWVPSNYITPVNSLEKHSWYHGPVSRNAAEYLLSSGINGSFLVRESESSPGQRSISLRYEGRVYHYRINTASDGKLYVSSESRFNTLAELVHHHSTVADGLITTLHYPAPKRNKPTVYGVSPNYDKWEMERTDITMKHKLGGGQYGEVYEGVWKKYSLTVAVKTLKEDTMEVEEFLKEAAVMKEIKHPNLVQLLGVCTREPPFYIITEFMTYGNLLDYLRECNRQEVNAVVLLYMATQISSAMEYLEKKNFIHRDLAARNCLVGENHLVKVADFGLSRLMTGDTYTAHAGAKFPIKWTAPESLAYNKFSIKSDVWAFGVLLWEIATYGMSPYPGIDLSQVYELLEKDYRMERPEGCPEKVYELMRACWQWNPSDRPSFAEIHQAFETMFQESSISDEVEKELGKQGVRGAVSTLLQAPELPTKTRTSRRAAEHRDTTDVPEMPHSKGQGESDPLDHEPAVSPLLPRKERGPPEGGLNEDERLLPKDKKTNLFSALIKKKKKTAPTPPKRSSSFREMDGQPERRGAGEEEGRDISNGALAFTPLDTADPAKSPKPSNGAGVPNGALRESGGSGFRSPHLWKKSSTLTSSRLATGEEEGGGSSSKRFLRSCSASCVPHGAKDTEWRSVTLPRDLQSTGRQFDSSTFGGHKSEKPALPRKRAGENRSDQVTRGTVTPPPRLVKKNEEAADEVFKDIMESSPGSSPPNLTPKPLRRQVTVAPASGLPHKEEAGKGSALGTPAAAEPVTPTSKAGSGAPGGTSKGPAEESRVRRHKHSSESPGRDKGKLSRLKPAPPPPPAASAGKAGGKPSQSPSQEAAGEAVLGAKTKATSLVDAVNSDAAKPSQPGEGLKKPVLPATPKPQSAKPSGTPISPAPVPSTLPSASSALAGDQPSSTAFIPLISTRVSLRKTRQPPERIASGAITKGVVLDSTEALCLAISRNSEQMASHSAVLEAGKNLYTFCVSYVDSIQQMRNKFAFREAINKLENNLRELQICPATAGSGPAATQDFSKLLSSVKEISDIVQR

B1: synthetic abl optimal peptide … (peptide)
peptide: EAIYAAPFAKKK
On to B1, for which the Km of phosphorylation of the peptide by the kinase in the assay with GST-c-abl came out at 4 µM.

B2: peptide Ala-Arg-Arg-Pro-Met-Ser-Pro-Lys-Lys-Lys-Ala (peptide)
peptide: ARRPMSPKKKA
With B2, the values for the Km (µM) of phosphorylation of the peptide by the kinase in the assay with GST-cyclin B/p33^cdc2 and with GST-cyclinA/p33^CDK2 were 2.4 µM and 15 µM, respectively.

B3: synthetic peptide based upon the site of tyrosine phosphorylation on p33^cdc2 (Y15) (peptide)
peptide: IEKIGEGTYGVVYKGRHKTT
modifications: not fully specified
Turning to B3, the Km (µM) of phosphorylation of the peptide by the kinase in assay [1] worked out at 139 µM.

These data come from patent US6004757.
